Patent US10017580B2, “Humanized anti-Tn-MUC1 antibodies and their conjugates” (ADC THERAPEUTICS S.A., priority 2014, dated 2018)
Blank lines part the entries; values can stand above or below the molecule they belong to.

How the values were obtained:
Tn-MUC1 (16TR-MUC1-Tn) = assay: Tn-MUC1 binding ELISA (protocol 4); set-up: species or system human; details: for Tn-MUC1 binding EC50: ELISA on 16TR-MUC1-Tn coated plate
[1] = tested on: ZR-75-1 cell line, which expresses Tn-MUC1; assay: ZR-75-1 cell binding assay by flow cytometry (protocol 6); details: for ZR-75-1 cell binding EC50: flow cytometry, live cells
Description: Protocol 6: ZR-75-1 Cell Binding Assay by Flow Cytometry Materials • Wash solution: PBS 0.1% (w/v) sodium azide • Binding buffer: PBS, 10% normal goat serum, 0.1% (w/v) sodium azide) • 96 well U-well microplate Protocol
Exponentially growing cells are suspended by incubation with cell dissociation buffer enzyme-free, Hanks-based (Gibco 13150-016) following the manufacturer's instructions. A cell count/viability is done on a dilution of 10 ul cells+Trypan Blue, 10 ul, with a haemocytomer. The suspension is centrifuged and the cell pellet re-suspended in binding buffer at 3×10^6 per ml. If significant levels of aggregates are present in the cell count, the suspension is filtered to remove aggregates. The cell suspension is dispensed (50 ul/well) in 96 well U-bottom plates and cooled on ice for 10 minutes. Primary antibody (50 ul/well) diluted in binding buffer (typically 1 ug per ml or less) is added to each well and incubated at 4° C. for 1 hour. The microplate is centrifuged 5 min at 300-400 g at 4° C., flicked to remove the supernatant and then the cell pellet re-suspended in 200 uL of wash buffer (PBS, 0.1% sodium azide). Centrifugation and re-suspension are done 4 times in all. After the last centrifugation, cells are re-suspended in 50 uL of binding buffer containing the biotin labelled conjugate 1:250 (kept at −20 C: Biotin-SP-AffiniPure F(ab′)2 Fragment Goat antihuman IgG (H+L); Jackson 109-066-088). Cells are incubated for 1 hour at 4 C, then washed 4 times as before. Cells are resuspended in 50 ul of binding buffer containing Streptavidin, Alexa Fluor® 488 conjugate (Life Technologies s11223) diluted 1:250 and Fixable Viability Dye eFluor® 780 (eBioscience 65-0865) diluted 1:2000, The cells are incubated at 4° C. for 1 hour and then washed 3 times, as above. Cells are then re-suspended in PBS if reading immediately or fixed in 100 ul of paraformaldehyde (2% (w/v) in PBS) and analysed with by flow cytometer (Accuri C6), gating on live cells which have a lower Fixable Viability Dye MFI compared to dead cells.
IgG binding potency to Tn-MUC1 was measured as per protocol 4 and binding to the ZR-75-1 cell line, which expresses Tn-MUC1, was measured as per protocol 6.

[2] = Thermal denaturation assay (protocol 5); assay type: physicochemical; details: 50% inactivation temperature, 10 minutes heating, read by antigen-binding ELISA

Tn-MUC1 (16TR-MUC1-Tn), sequence (P15941 141-460 limits assumed): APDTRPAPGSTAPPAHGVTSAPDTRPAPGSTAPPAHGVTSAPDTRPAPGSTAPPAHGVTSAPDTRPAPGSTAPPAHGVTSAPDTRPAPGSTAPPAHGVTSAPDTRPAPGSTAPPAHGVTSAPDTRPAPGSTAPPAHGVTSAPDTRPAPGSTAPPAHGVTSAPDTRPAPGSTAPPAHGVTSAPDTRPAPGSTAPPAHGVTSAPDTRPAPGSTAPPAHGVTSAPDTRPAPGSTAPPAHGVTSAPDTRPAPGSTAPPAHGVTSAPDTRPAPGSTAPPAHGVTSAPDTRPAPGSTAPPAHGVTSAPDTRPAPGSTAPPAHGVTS

- Tn-MUC1 binding EC50 (Tn-MUC1 (16TR-MUC1-Tn)): 0.0198 µg/mL
- ZR-75-1 cell binding EC50 [1]: 0.0413 µg/mL
B1: Ab6: anti-Tn MUC 1 antibody comprising a VH domain according to SEQ ID NO. 28 and a VL domain according to SEQ ID NO. 33 (antibody, V domains shown)
VH: EVQLVESGAEVKKPGASVEVSCQASGYTFTDHAIHWVRQAPGQGLEWMGHFSPGNTDIKYNDKFKGRVTMTVDRSINTAYMELRRLRSDDTAVYYCKTSTFFFDYWGQGTMVTVSS
VL: DIVMTQSPLSLPVTPGEPASISCKSSQSLLNSGDQKNYLTWYLQKPGQSPQLLIYWASTRESGVPDRFSGSGSGTDFTLKISRVEAEDVGVYYCQNDYSYPLTFGGGTKVEIK
modifications: Synthetic sequence: Humanized antibody heavy chain variable region 5E5RHC9; Synthetic sequence: Humanized antibody light chain variable region 5E5RKB
- TnMUC1 binding potency compared with mouse 5E5 (in words) (Tn-MUC1 (16TR-MUC1-Tn); Tn-MUC1 binding assay data): substantially improved over the mouse 5E5

- Tn-MUC1 binding EC50 (Tn-MUC1 (16TR-MUC1-Tn)): 0.07549 µg/mL
- ZR-75-1 cell binding EC50 [1]: 0.04229 µg/mL
B2: Ab4: anti-Tn MUC 1 antibody comprising a VH domain according to SEQ ID NO. 9 and a VL domain according to SEQ ID NO. 33 (antibody, V domains shown)
VH: QVQLVQSGAEVKKTGSSVKVSCKASGYTFTDHAIHWVRQAPGQALEWMGHFSPGNTDIKYNDKFKGRVTLTVDRSMSTAYMELSSLRSEDTAMYYCKTSTFFFDYWGQGTMVTVSS
VL: B1 VL
modifications: Synthetic sequence: Humanized antibody heavy chain variable region 5E5RHA8; Synthetic sequence: Humanized antibody light chain variable region 5E5RKB
- Tm [2]: 65.23 °C

- Tn-MUC1 binding EC50 (Tn-MUC1 (16TR-MUC1-Tn)): 0.02687 µg/mL
- ZR-75-1 cell binding EC50 [1]: 0.01842 µg/mL
B3: Ab5: anti-Tn MUC 1 antibody comprising a VH domain according to SEQ ID NO. 19 and a VL domain according to SEQ ID NO. 33 (antibody, V domains shown)
VH: EVQLVQSGAEVKKPGESLKISCKISGYIFTDHAIHWVRQMPGKGLEWMGHFSPGNTDIKYNDKFKGQVTLSVDRSINTAYLQWSSLKASDTAIYFCKTSTFFFDYWGQGTRVTVSS
VL: B1 VL
modifications: Synthetic sequence: Humanized antibody heavy chain variable region 5E5RHB10; Synthetic sequence: Humanized antibody light chain variable region 5E5RKB
- ZR-75-1 binding potency compared with mouse 5E5 (in words) ([1]; flow cytometry EC50 data): substantially improved over the mouse 5E5
- Tm [2]: 62.58 °C
